Data from patent US20230140293A1.

Tests used:
Assay in all cases: cell-based or functional assay
[1] = target: CH0505TF.gly3.197 Env, Env-pseudotyped virus produced in 293T cells (HIV-1)
[2] = target: HIV-1 Env 426c, Env-pseudotyped virus produced in 293T cells (HIV-1 clade C strain 426c)
[3] = target: CH0505TF.gly4 Env, Env-pseudotyped virus produced in 293T cells (HIV-1)
[4] = target: CH0505TF.gly4.G458Y Env, pseudotyped virus produced in 293T cells (HIV-1)
[5] = target: CH0505TF.G458Y Env, pseudotyped virus produced in 293S GnTI- cells (HIV-1)
[6] = target: CH0505.w4.3 Env, Env-pseudotyped virus produced in 293T cells (HIV-1)
[7] = target: CH0505TF.gly3.276 Env, Env-pseudotyped virus produced in 293T cells (HIV-1)
[8] = target: CH0505TF Env, pseudotyped virus produced in 293S GnTI- cells (HIV-1)
[9] = target: CH0505TF.gly3.461 Env, pseudotyped virus produced in 293S GnTI- cells (HIV-1)
[10] = target: CH0505TF.gly3.197 Env, pseudotyped virus produced in 293S GnTI- cells (HIV-1)
[11] = target: CH0505TF.gly3.276 Env, pseudotyped virus produced in 293S GnTI- cells (HIV-1)
[12] = target: CH0505TF G458Y.N280D Env, pseudotyped virus produced in 293S GnTI- cells (HIV-1)
[13] = target: CH0505TF G458K Env, pseudotyped virus produced in 293S GnTI- cells (HIV-1)
[14] = target: CH0505.w4.3 Env, pseudotyped virus produced in 293S GnTI- cells (HIV-1)
[15] = target: CH0505TF G458F Env, pseudotyped virus produced in 293S GnTI- cells (HIV-1)
[16] = target: HIV-1 Env 426c.TM4 (S278R.G471S.N460D.N463D), Env-pseudotyped virus produced in 293T cells (HIV-1 clade C strain 426c)
[17] = target: CH0505TF.gly3.461 Env, Env-pseudotyped virus produced in 293T cells (HIV-1)
[18] = target: CH0505TF G458S Env, pseudotyped virus produced in 293S GnTI- cells (HIV-1)
[19] = target: CH0505TF G458L Env, pseudotyped virus produced in 293S GnTI- cells (HIV-1)
[20] = target: CH0505TF G458D Env, pseudotyped virus produced in 293S GnTI- cells (HIV-1)
[21] = target: HIV-1 Env 426c.TM (N276D.N460D.N463D), Env-pseudotyped virus produced in 293T cells (HIV-1 clade C strain 426c)
[22] = target: CH0505TF G458W Env, pseudotyped virus produced in 293S GnTI- cells (HIV-1)
[23] = target: CH0505TF G458E Env, pseudotyped virus produced in 293S GnTI- cells (HIV-1)
[24] = target: CH0505TF G458R Env, pseudotyped virus produced in 293S GnTI- cells (HIV-1)
[25] = target: CH0505TF.gly4.G458Y Env, pseudotyped virus produced in 293S GnTI- cells (HIV-1)
[26] = target: HIV-1 Env 426c.TM (N276D.N460D.N463D), Env-pseudotyped virus produced in 293S GnTI- cells (Man5-enriched) (HIV-1 clade C strain 426c)
[27] = target: CH0505TF Env, Env-pseudotyped virus produced in 293T cells (HIV-1)
[28] = target: CH0505TF.gly4 Env, pseudotyped virus produced in 293S GnTI- cells (HIV-1)
[29] = target: HIV-1 Env 426c.TM4 (S278R.G471S.N460D.N463D), Env-pseudotyped virus produced in 293S GnTI- cells (Man5-enriched) (HIV-1 clade C strain 426c)
[30] = target: CH0505TF G458C Env, pseudotyped virus produced in 293S GnTI- cells (HIV-1)
[31] = target: CH0505TF.G458Y Env, Env-pseudotyped virus produced in 293T cells (HIV-1)
[32] = target: HIV-1 CH0505TF.G458Y Env on Env-pseudotyped virus produced in 293T cells (HIV-1)
[33] = target: HIV-1 CH0505TF.N280D Env on Env-pseudotyped virus produced in 293T cells (HIV-1)
[34] = target: HIV-1 CH0505TF (CH505 transmitted/founder) Env on Env-pseudotyped virus produced in 293T cells (HIV-1)
[35] = target: HIV-1 CH0505TF.S365P Env on Env-pseudotyped virus produced in 293T cells (HIV-1)
[36] = target: HIV-1 426c.SM (N276D) Env on Env-pseudotyped virus produced in 293s/GnTI-/- cells (Man5-enrichment) (HIV-1)
[37] = target: HIV-1 CH0505TF.gly4 Env on Env-pseudotyped virus produced in 293S/GnTI-/- cells (Man5-enrichment) (HIV-1)
[38] = target: HIV-1 clade C strain 426c Env on Env-pseudotyped virus produced in 293T cells (HIV-1)
[39] = target: HIV-1 Env 426c.DM (N460D.N463D), Env-pseudotyped virus produced in 293S GnTI- cells (Man5-enriched) (HIV-1 clade C strain 426c)
[40] = target: HIV-1 clade C strain 426c Env on Env-pseudotyped virus produced in 293s/GnTI-/- cells (Man5-enrichment) (HIV-1)
[41] = target: HIV-1 CH0505TF Env on Env-pseudotyped virus produced in 293S/GnTI-/- cells (Man5-enrichment) (HIV-1)
[42] = target: HIV-1 CH0505TF.gly4 Env on Env-pseudotyped virus produced in 293T cells (HIV-1)
[43] = target: HIV-1 Env 426c.SM (N276D), Env-pseudotyped virus produced in 293T cells (HIV-1 clade C strain 426c)
[44] = target: HIV-1 426c.TM (N276D/N460D/N463D) Env on Env-pseudotyped virus produced in 293s/GnTI-/- cells (Man5-enrichment) (HIV-1)
[45] = target: HIV-1 426c.DM (N460D/N463D) Env on Env-pseudotyped virus produced in 293s/GnTI-/- cells (Man5-enrichment) (HIV-1)
[46] = target: HIV-1 CH0505TF.gly3.197 Env on Env-pseudotyped virus produced in 293S/GnTI-/- cells (Man5-enrichment) (HIV-1)
[47] = target: HIV-1 Env 426c.DM (N460D.N463D), Env-pseudotyped virus produced in 293T cells (HIV-1 clade C strain 426c)
[48] = target: HIV-1 CH0505TF.gly3.197 Env on Env-pseudotyped virus produced in 293T cells (HIV-1)
[49] = target: HIV-1 426c.TM (N276D/N460D/N463D) Env on Env-pseudotyped virus produced in 293T cells (HIV-1)
[50] = target: HIV-1 CH0505TF (CH505 transmitted/founder) Env on Env-pseudotyped virus produced in 293T cells (HIV-1); remark: listed apart in the source
[51] = target: HIV-1 426c.DM (N460D/N463D) Env on Env-pseudotyped virus produced in 293T cells (HIV-1)
[52] = target: HIV-1 Env 426c, Env-pseudotyped virus produced in 293S GnTI- cells (Man5-enriched) (HIV-1 clade C strain 426c)
[53] = target: HIV-1 Env 426c.SM (N276D), Env-pseudotyped virus produced in 293S GnTI- cells (Man5-enriched) (HIV-1 clade C strain 426c)
[54] = target: HIV-1 426c.SM (N276D) Env on Env-pseudotyped virus produced in 293T cells (HIV-1)

CH235 UCA2 (antibody)
IC50 (µg/ml) in TZM-bl [1]: > 50 µg/mL | IC50 (µg/ml) in TZM-bl [2]: > 50 µg/mL | IC50 (µg/ml) in TZM-bl [3]: > 50 µg/mL | IC50 (µg/ml) in TZM-bl cells [4]: > 10 µg/mL | IC50 (µg/ml) in TZM-bl [5]: 0.16 µg/mL | IC50 (µg/ml) in TZM-bl cells [5]: 0.2 µg/mL | IC50 (µg/ml) in TZM-bl [6]: > 25 µg/mL | IC50 (µg/ml) in TZM-bl [7]: > 50 µg/mL | IC50 (µg/ml) in TZM-bl [8]: > 50 µg/mL | IC50 (µg/ml) in TZM-bl [9]: > 50 µg/mL | IC50 (µg/ml) in TZM-bl [10]: > 50 µg/mL | IC50 (µg/ml) in TZM-bl [11]: > 50 µg/mL | IC50 (µg/ml) in TZM-bl cells [12]: > 10 µg/mL | IC50 (µg/ml) in TZM-bl cells [13]: > 10 µg/mL | IC50 (µg/ml) in TZM-bl [14]: > 25 µg/mL | IC50 (µg/ml) in TZM-bl cells [15]: 0.746 µg/mL | IC50 (µg/ml) in TZM-bl [16]: > 25 µg/mL | IC50 (µg/ml) in TZM-bl [17]: > 50 µg/mL | IC50 (µg/ml) in TZM-bl cells [18]: > 10 µg/mL | IC50 (µg/ml) in TZM-bl cells [19]: 0.555 µg/mL | IC50 (µg/ml) in TZM-bl cells [20]: > 10 µg/mL | IC50 (µg/ml) in TZM-bl [21]: > 50 µg/mL | IC50 (µg/ml) in TZM-bl cells [22]: 1.07 µg/mL | IC50 (µg/ml) in TZM-bl cells [23]: > 10 µg/mL | IC50 (µg/ml) in TZM-bl cells [24]: 0.916 µg/mL | IC50 (µg/ml) in TZM-bl cells [25]: > 10 µg/mL | IC50 (µg/ml) in TZM-bl [26]: > 50 µg/mL | IC50 (µg/ml) in TZM-bl [27]: > 50 µg/mL | IC50 (µg/ml) in TZM-bl [28]: > 50 µg/mL | IC50 (µg/ml) in TZM-bl [29]: > 25 µg/mL | IC50 (µg/ml) in TZM-bl cells [30]: 0.391 µg/mL | IC50 (µg/ml) in TZM-bl [31]: > 25 µg/mL

VRC01 (antibody)
IC50 (µg/ml) in TZM-bl [32]: > 25 µg/mL | IC50 (µg/ml) in TZM-bl [33]: > 25 µg/mL | IC50 (µg/ml) in TZM-bl [34]: 0.1 µg/mL | IC50 (µg/ml) in TZM-bl [35]: 0.1 µg/mL | ID50/IC50 in TZM-bl [36]: 0.04 µg/mL | IC50 (µg/ml) in TZM-bl [1]: 0.023 µg/mL | IC50 (µg/ml) in TZM-bl [2]: 2.2 µg/mL | IC50 (µg/ml) in TZM-bl [3]: 0.002 µg/mL | IC50 (ug/ml) in TZM-bl cells [37]: 0.001 µg/mL | ID50/IC50 in TZM-bl [38]: 2.2 µg/mL | IC50 (µg/ml) in TZM-bl [39]: 0.04 µg/mL | ID50/IC50 in TZM-bl [40]: 0.19 µg/mL | IC50 (ug/ml) in TZM-bl cells [41]: 0.03 µg/mL | IC50 (ug/ml) in TZM-bl cells [42]: 0.002 µg/mL | IC50 (µg/ml) in TZM-bl [5]: 0.91 µg/mL | IC50 (µg/ml) in TZM-bl [6]: 0.05 µg/mL | IC50 (µg/ml) in TZM-bl [7]: 0.004 µg/mL | IC50 (µg/ml) in TZM-bl [8]: 0.03 µg/mL | IC50 (µg/ml) in TZM-bl [43]: 0.39 µg/mL | IC50 (µg/ml) in TZM-bl [9]: 0.015 µg/mL | IC50 (µg/ml) in TZM-bl [10]: 0.009 µg/mL | ID50/IC50 in TZM-bl [44]: 0.015 µg/mL | ID50/IC50 in TZM-bl [45]: 0.04 µg/mL | IC50 (ug/ml) in TZM-bl cells [46]: 0.009 µg/mL | IC50 (µg/ml) in TZM-bl [11]: 0.003 µg/mL | IC50 (µg/ml) in TZM-bl [47]: 0.41 µg/mL | IC50 (µg/ml) in TZM-bl [16]: 0.002 µg/mL | IC50 (ug/ml) in TZM-bl cells [48]: 0.023 µg/mL | ID50/IC50 in TZM-bl [49]: 0.03 µg/mL | IC50 (µg/ml) in TZM-bl [17]: 1.98 µg/mL | IC50 (ug/ml) in TZM-bl cells [50]: 0.09 µg/mL | IC50 (µg/ml) in TZM-bl [21]: 0.03 µg/mL | ID50/IC50 in TZM-bl [51]: 0.41 µg/mL | IC50 (µg/ml) in TZM-bl [52]: 0.19 µg/mL | IC50 (µg/ml) in TZM-bl [53]: 0.04 µg/mL | ID50/IC50 in TZM-bl [54]: 0.39 µg/mL | IC50 (µg/ml) in TZM-bl [26]: 0.015 µg/mL | IC50 (µg/ml) in TZM-bl [27]: 0.1 µg/mL | IC50 (µg/ml) in TZM-bl [28]: 0.001 µg/mL | IC50 (µg/ml) in TZM-bl [29]: 0.007 µg/mL | IC50 (µg/ml) in TZM-bl [31]: > 25 µg/mL
